The values that follow come from publication PMC8247850, “The Peculiar Case of the Hyper‐thermostable Pyrimidine Nucleoside Phosphorylase from Thermus thermophilus” (Chembiochem, 2021).

For series [1], the target named is T1, TtPyNP (Thermus thermophilus pyrimidine nucleoside phosphorylase) (Thermus thermophilus, UniProt Q5SHF9).
T1 construct: gene TTHA1771
T1 sequence (Q5SHF9 1-423): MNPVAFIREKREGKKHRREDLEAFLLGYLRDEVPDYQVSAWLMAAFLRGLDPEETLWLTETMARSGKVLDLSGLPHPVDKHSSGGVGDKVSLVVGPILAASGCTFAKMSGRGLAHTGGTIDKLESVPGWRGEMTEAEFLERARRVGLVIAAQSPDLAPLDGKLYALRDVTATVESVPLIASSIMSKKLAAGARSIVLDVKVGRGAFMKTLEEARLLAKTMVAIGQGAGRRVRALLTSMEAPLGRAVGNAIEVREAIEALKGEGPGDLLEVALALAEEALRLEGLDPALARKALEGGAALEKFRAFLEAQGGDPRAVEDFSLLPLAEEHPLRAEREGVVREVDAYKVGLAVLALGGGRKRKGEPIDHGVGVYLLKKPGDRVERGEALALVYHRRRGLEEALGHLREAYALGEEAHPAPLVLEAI
Conditions: co-substrate uridine.

Substrate in series [2]: O=c1ccn([C@@H]2O[C@H](CO)[C@@H](O)[C@H]2O)c(=O)[nH]1
Nature of the series: UV spectral unmixing of phosphorolysis initial rates. The format is biochemical, Thermus thermophilus. Conditions: 80 °C, pH 7, saturating phosphate, Michaelis-Menten-like only up to 1-2 mM, inhibition at higher concentration.

As for `O=P(O)(O)O` [phosphate], in series [1], the “K M” value is recorded as “saturating phosphate concentrations for which typical Michaelis–Menten behavior was observed; Figure S4”.

B1: TtPyNP (Thermus thermophilus pyrimidine nucleoside phosphorylase) (Thermus thermophilus HB8) (protein)
chain: MNPVAFIREKREGKKHRREDLEAFLLGYLRDEVPDYQVSAWLMAAFLRGLDPEETLWLTETMARSGKVLDLSGLPHPVDKHSSGGVGDKVSLVVGPILAASGCTFAKMSGRGLAHTGGTIDKLESVPGWRGEMTEAEFLERARRVGLVIAAQSPDLAPLDGKLYALRDVTATVESVPLIASSIMSKKLAAGARSIVLDVKVGRGAFMKTLEEARLLAKTMVAIGQGAGRRVRALLTSMEAPLGRAVGNAIEVREAIEALKGEGPGDLLEVALALAEEALRLEGLDPALARKALEGGAALEKFRAFLEAQGGDPRAVEDFSLLPLAEEHPLRAEREGVVREVDAYKVGLAVLALGGGRKRKGEPIDHGVGVYLLKKPGDRVERGEALALVYHRRRGLEEALGHLREAYALGEEAHPAPLVLEAI
notes: tag not described in the main text
Broadly, the Km is the concentration of substrate that gives half-maximal velocity. In general, kcat refers to the number of substrate molecules converted per active site and unit of time at saturation. With B1, in series [2], the Km was found to be 5.92 ± 8.72 mM and the kcat is 624.89 ± 823.49 s⁻¹.
